Laboratory results from patent publication US20220144895A1, “DE NOVO DESIGN OF TUNABLE PH-DRIVEN CONFORMATIONAL SWITCHES” (University of Washington, priority 2019, published 2022).
Positions count from the first letter of the chain named. In names and notes the source's numbering stands. Entries after “also recorded” stand apart in the source; their conditions may differ.

How the values were obtained:
[1] = Native mass spectrometry of pH-induced changes in oligomeric state; format: physicochemical; settings: for pH response of oligomeric state (pH-induced disassembly) / pH transition point of disassembly (pH set point, pH0): native MS; for pH response of oligomeric state (pH-induced disassembly): pH ~7 to ~3; for reversibility of disassembly: pH lowered with acetic acid, then raised by ammonia or buffer exchange; for cooperativity of the pH-induced transition: native MS at different pH values; for pH transition point of disassembly (pH set point, pH0): evaluated from pH 7 down to pH 3
Protocol: Samples were buffer exchanged twice into 200 mM ammonium acetate (NH4Ac; MilliporeSigma) using Micro Bio-Spin P-6 columns (Bio-Rad). Protein concentrations were determined by UV absorbance using a Nanodrop 2000c spectrophotometer (Thermo Fisher Scientific) and diluted to make up a 10-fold stock solution (50 μM and 16.7 μM monomer and trimer concentration, respectively). 1 μL of this solution was mixed with 9 μL 200 mM NH4Ac/50 mM triethylammonium acetate (TEAA; MilliporeSigma), adjusted with acetic acid (Fisher Scientific) to obtain the desired final pH and incubated on ice for 30 min. […] 5 μL samples were filled into an in-house pulled glass capillary and ionized by nESI at a monomer or a trimer concentration of 5 μM or 1.67 μM respectively. All pH titration data were acquired on an in-house modified SYNAPT® G2 HDMS (Waters Corporation) with a surface-induced dissociation (SID) device incorporated between a truncated trap traveling wave ion guide and the ion mobility cell (39). The following instrument parameters were used spray voltage 0.9-1.3 kV; sampling cone, 20 V; extraction cone, 2 V; source temperature, room temperature; trap gas flow, 4 mL/min; trap bins, 45V. The data were processed with MassLynx™ v4.1 and DriftScope™ v2.1. For relative quantification, charge state series were extracted from DriftScope™, and smoothed spectra (mean; window 20; number of smooths 20) were integrated.
Python scripts were written to generate theoretical models according Equation 1, and curve-fitting to native mass spectrometry data (FIGS. 1, 3, 5) according to Equation 2 by nonlinear least squares using curve fit from scipy.optimize. The free energy estimates for individual n, m, and l layers used in Equation 1 modeling were estimated by solving linear equations as follows: values for the free energy of folding for designs pRO-2 and variants were estimated from GdmCl denaturation experiments (FIG. 11); each of these designs have different numbers of n, m, and l layers, thus series of linear equations relating the number of each layer type to the total free energies of folding were solved to estimate dG values of the individual layers of each type.

[2] = Fluorescence dequenching liposome leakage (liposome disruption) assay; format: biochemical; settings: for pH-dependent liposome disruption: 2.5 μM protein with respect to monomer, SRB leakage; for liposome disruption activity at pH 4.75: pH 4.75, 2.5 μM protein
Protocol: Liposomes composed of DOPC (1,2-dioleoyl-sn-glycero-3-phosphocholine), DOPC with 25% cholesterol (molar ratio to DOPC), 3:1 DOPC:POPS (1-palmitoyl-2-oleoyl-sn-glycero-3-phospho-L-serine), and 3:1 DOPC:POPS with 25% cholesterol were prepared identically to a final concentration of 5 mM total lipid as previously described (32); lipids from Avanti Polar Lipids. Lipids solubilized in chloroform were dried under nitrogen gas and stored under vacuum for a minimum of 2 hours to remove residual solvent. The dried lipid film was the resuspended in Tris buffer (10 mM Tris, 150 mM NaCl, and 0.02% NaN3 pH 8.0) containing 25 mM Sulforhodamine B (SRB) fluorophore (Sigma) and subjected to 10 sequential freeze thaw cycles in liquid nitrogen. Liposomes were extruded 29 times through 100 nm pore size polycarbonate filters (Avanti Polar Lipids) and purified from free fluorophore using a PD-10 gel filtration column (GE Healthcare) into storage buffer (10 mM Tris, 150 mM NaCl, and 0.02% NaN3 pH 8.0). Liposome size and homogeneity was analyzed by dynamic light scattering (DLS) using a Dynapro Nanostar™ DLS (Wyatt Technologies). On average liposome diameter ranged from 120-130 nm with low polydispersity. Liposomes were stored at 4° C. and used within 5 days of preparation.
Liposome disruption and content leakage was analyzed by fluorescence spectroscopy as previously described (32). […] The solution was rapidly acidified to the target pH by addition of a fixed volume of acidification buffer and incubated for 20 minutes. […] SRB fluorescence is independent of pH within the ranges used here. Finally. Triton X-100 (Sigma) was added to a final concentration of 1% to fully disrupt liposomes. Liposome disruption as indicated by content leakage and SRB dequenching was normalized using the formula [Fω−F(0)]/[F(Max)−F(0)] where F(0) is the average fluorescence intensity before acidification and F(Max) is the average fluorescence intensity ater addition of Triton X-100. All measurements were collected on a Varian Cary Eclipse spectrophotometer using an excitation/emission pairing of […] and 2.5 nm slit widths at 24° C. Any data plotted together was collected using the sum batch of liposomes.

[3] = biological target: the molecule itself; assay: native mass spectrometry; homotrimer
Protocol: Oligomeric state was assessed by size-exclusion chromatography (SEC) and native mass spectrometry (24).
Samples were buffer exchanged twice into 200 mM ammonium acetate (NH₄Ac; MilliporeSigma) using Micro Bio-Spin P-6 columns (Bio-Rad). Protein concentrations were determined by UV absorbance using a Nanodrop 2000c spectrophotometer (Thermo Fisher Scientific) and diluted to make up a 10-fold stock solution (50 μM and 16.7 μM monomer and trimer concentration, respectively). 1 μL of this solution was mixed with 9 μL 200 mM NH₄Ac/50 mM triethylammonium acetate (TEAA; MilliporeSigma), adjusted with acetic acid (Fisher Scientific) to obtain the desired final pH and incubated on ice for 30 min.

[4] = Circular dichroism: GdmCl chemical denaturation and temperature melts; settings: CD at 222 nm, PBS pH 7.4 or Na2PO4-Citrate at lower pH
Excerpt: For low-pH experiments involving circular dichroism (CD), small-angle X-ray scattering (SAXS), and size exclusion chromatography (SEC), Na2PO4-Citrate buffer was used to ensure that a single buffer system could be used that was stable over the entire pH range to be tested. Buffers were made using established ratios of stock solutions of 0.2 M Na2PO4 and 0.1 M Citrate; final pH was adjusted using hydrochloric acid (HCl) or sodium hydroxide (NaOH) if needed.
CD wavelength scans (260 to 195 nm) and temperature melts (25 to 95° C.) were measured using a JASCO™ J-1500 or an AVIV™ model 420 CD spectrometer. Temperature melts monitored absorption signal at 222 nm and were carried out at a heating rate of 4° C./min; protein samples were at 0.25 mg/mL in either phosphate buffered saline (PBS) pH 7.4 or Na2PO4-Citrate at indicated pH values (see Buffers systems for varying pH). Guanidinium chloride (GdmCl) titrations were all performed on an AVIV 420 spectrometer with an automated titration apparatus using either PBS pH 7.4 or Na2PO4-Citrate buffers at indicated pH at room temperature, monitoring helical signal at 222 nm, using a protein concentration of 0.025 mg/mL in a 1 cm cuvette with stir bar. Each titration consisted of at least 30 evenly distributed concentration points with one minute mixing time for each step. Titrant solution consisted of the same concentration of protein in the same buffer system plus GdmCl; GdmCl concentration of starting solutions was determined by reactive index.

[5] = fused at its n-terminus to a nanoparticle

B1: pRO-3.1: pRO-3 variant, SEQ ID NO: 25-26 (protein)
chain 1: MGSHHHHHHGSGSENLYFQGSEALYELEKATRELKKATDELERATEELEKNPSEDALVEHNRLIAEHNKIIAEHNRIIAKVLK
chain 2: GSEALYELEKATRELKKATDELERATEELEKNPSEDALVEHNRLIAEHNKIIAEHNRIIAKVLK
[1]
  pH response of oligomeric state (pH-induced disassembly): more pH-sensitive than design pRO-3
  reversibility of disassembly: re-association of monomers into trimer
[2]
  pH-dependent liposome disruption: did not exhibit any liposome disruption
  liposome disruption activity at pH 4.75: does not

B2: pRO-3: designed homotrimer, SEQ ID NO: 23-24 (protein)
chain 1: B1 chain 1 with T31L, D39A, E40A, E46A, E49K, E66A, H74V, N75L
chain 2: B1 chain 2 with T12L, D20A, E21A, E27A, E30K, E47A, H55V, N56L
[2]
  pH-dependent liposome disruption: caused pH-dependent liposome disruption
  liposome disruption activity at pH 4.75: shows liposome disruption activity

B3: SEQ ID NO: 39: similar to pRO2.3, Thrombin cleavage sites on each loop, destabilizing I56V mutation (protein)
chain: GSEEEIKRLLEELRKSSEELRRITKELDDLSKELRVGGSGSGSLVPRGSGSGSGSHALVEHNKLISEHNRIVVENNRIIVEILEAIARVGGSGSGSVEVERILDELRKSSEELDRVTKELKKLTEELDVGGSGSGSLVPRGSGSGSGSVEALVRHNVLITRHNDIVVKNNDIINKILKLIAEAVGGSGSGSELERILRELEESTKELRKATEELRRLSEELKVGGSGSGSLVPRGSGSGSGSHEALVRHNEAIVEHNKIVVKNNDIIVKILELITERI
[2]; [5]
  kinetics of liposome disruption relative to pRO2.3, nanoparticle fusion: slower kinetics
  liposome disruption relative to pRO2.3, nanoparticle fusion: close as well as pRO2.3

B4: pRO-2.1 subunit (designed binder)
chain: SEYEIRKALEELKAALAELKRATASLRAITEELKKNPSEDALVEHNRAIVEHNAIIVEVLRIIAAVLELIVRAIK
notes: forms a homotrimer; Tag-free form
[3]
  binding result: binds

B5: pRO-2.5 subunit (designed binder)
chain: B4 chain with A15S, L16T, I29S, H45N, A48L, V59N, L60N
notes: forms a homotrimer; Tag-free form; also called PDB 6MSR
[3]
  binding result: binds

B6: pRO-2.5: pRO-2 variant, SEQ ID NO: 11-12 (protein)
chain 1: MGSHHHHHHGSGSENLYFQGSEYEIRKALEELKASTAELKRATASLRASTEELKKNPSEDALVENNRLIVEHNAIIVENNRIIAAVLELIVRAIK
chain 2: B4 chain with A15S, L16T, I29S, H45N, A48L, V59N, L60N
[1]
  cooperativity of the pH-induced transition: least cooperative design tested
  pH transition point of disassembly (pH set point, pH0): ~4 pH
  reversibility of disassembly: Re-association was induced
[4]
  folding stability by GdmCl denaturation: lowest stability

B7: SEQ ID NO: 40: as SEQ ID NO: 39 but third asparagine network mutated to all hydrophobics (protein)
chain: GSEEEIKRLLEELRKALEELRRITKELDDLSKELRVGGSGSGSLVPRGSGSGSGSHALVEHNKLISEHNRIVVEVLRIIAEILEAIARVGGSGSGSVEVERILDELRKALEELDRVTKELKKLTEELDVGGSGSGSLVPRGSGSGSGSVEALVRHNVLITRHNDIVVKVLDIIAKILKLIAEAVGGSGSGSELERILRELEEALKELRKATEELRRLSEELKVGGSGSGSLVPRGSGSGSGSHEALVRHNEAIVEHNKIVVKVLDIIAKILELITERI
[2]; [5]
  kinetics of liposome disruption relative to pRO2.3, nanoparticle fusion: slower kinetics
  liposome disruption better than pRO2.3, nanoparticle fusion: 5-10%

B8: pRO-2 I70N: pRO-2 mutant, SEQ ID NO: 21-22 (protein)
chain 1: B6 chain 1 with S35A, S49I, N65H, L68A, N79H, I90N
chain 2: GSEYEIRKALEELKAATAELKRATASLRAITEELKKNPSEDALVEHNRAIVEHNAIIVEHNRIIAAVLELNVRAIK
[2]
  pH-dependent liposome disruption: attenuation of pH-induced liposome disruption
[2]; listed as pRO-2170N
  pH-dependent liposome disruption: attenuates liposome activity

B9: pRO-2 A54M: pRO-2 mutant, SEQ ID NO: 19-20 (protein)
chain 1: B6 chain 1 with S35A, S49I, N65H, L68A, A74M, N79H
chain 2: B8 chain 2 with A55M, N71I
[1]
  cooperativity of the pH-induced transition: Neither of the mutations substantially affect the cooperativity
  pH transition point of disassembly (pH set point, pH0): decreases the transition pH
[4]
  folding stability by GdmCl denaturation: increases stability

B10: 2L6HC3_13: previous designed homotrimer lacking buried histidines, PDB ID 5J0H (protein)
chain: GTKYELRRALEELEKALRELKKSLDELERSLEELEKNPSEDALVENNRLNVENNKIIVEVLRIIAEVLKINAKSD
[1]
  pH response of oligomeric state (pH-induced disassembly): no change in oligomeric state; also recorded: no significant pH response
[1]; listed as 2L6C3_13
  pH response of oligomeric state (pH-induced disassembly): not pH-sensitive
[4]
  folding stability by GdmCl denaturation: no change
[4]; listed as 2L6C3_13
  folding stability by GdmCl denaturation: no destabilization
